Reference: the supplement of paper PMC6757056
± gives the standard deviation of the averaged measurements.

B1: library; a variant is named by its letters at N, in order (parent)
chain: GCUGUCACCGGUGUAUUACCCUAGUGGUCGACCGGUCUGAUGAGUCUNNNNNNAGACGAAACAGC

Columns and labels:
[1] = variants of: B1; experiment: FACS-Seq fitted mean relative fluorescence mCherry/BFP without ligand (log10 relative fluorescence); ligand: hypoxanthine (xanthine aptamer); higher = higher reporter protein expression; settings: HEK293T, ligand present: no
Description: (§1)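 Hammerhead (sTRSV) ribozyme switch libraries with a ligand aptamer grafted on stem I and a randomized N4-6 loop II, cloned into the 3' UTR of mCherry and transiently transfected into HEK293T cells; RNA-Seq 72 h post transfection with ligand added 1 h before transfection; RNA read count / plasmid DNA read count normalized to the non-cleaving sTRSVctl (x100), log10; sequences with >100 DNA reads. FACS-Seq: lentiviral library sorted into 6 bins after 48 h ligand, log-normal fit mean of mCherry/BFP scaled to controls. Printed sequences are partial switch sequences.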

[2] = variants of: B1; experiment: normalized RNA/DNA level with ligand (relative to sTRSVctl = 100) (log10 (% of sTRSVctl)); ligand: hypoxanthine (xanthine aptamer); higher = less ribozyme self-cleavage, higher mRNA level; settings: ligand concentration (+) RNA-Seq: 5 mM, HEK293T, reporter: mCherry (pCS4076), ligand present: yes
Description: as §1

[3] = variants of: B1; experiment: normalized RNA/DNA level without ligand (relative to sTRSVctl = 100) (log10 (% of sTRSVctl)); ligand: hypoxanthine (xanthine aptamer); higher = less ribozyme self-cleavage, higher mRNA level; settings: HEK293T, reporter: mCherry (pCS4076), ligand present: no
Description: as §1

[4] = variants of: B1; experiment: FACS-Seq fitted mean relative fluorescence mCherry/BFP with ligand (log10 relative fluorescence); ligand: hypoxanthine (xanthine aptamer); ligand concentration (+) FACS-Seq: 5 mM; higher = higher reporter protein expression; settings: HEK293T, ligand present: yes
Description: as §1

Variant	FACS-Seq fitted mean (log10) [1]	normalized RNA/DNA level with ligand (log10) [2]	normalized RNA/DNA level without ligand (log10) [3]	FACS-Seq fitted mean (log10) [4]
AAACUU	0.777 ± 0.048	1.92 ± 0.011	1.856 ± 0.0063	0.674 ± 0.075
AAACUG	0.227 ± 0.039	1.822 ± 0.0094	1.43 ± 0.051	0.46 ± 0.021
GAAGCG	0.1393 ± 0.001	1.8561 ± 0.0014	1.4 ± 0.075	0.56 ± 0.016
GAAGCA	0.802 ± 0.069	1.96 ± 0.03	1.76 ± 0.049	0.779 ± 0.075
UAAUGG	0.218 ± 0.021	1.87 ± 0.044	1.53 ± 0.052	0.457 ± 0.038
GACCAG	0.136 ± 0.033	1.865 ± 0.0019	1.55 ± 0.073	0.531 ± 0.013
GACCAA	0.126 ± 0.012	1.9242 ± 0.00022	1.81 ± 0.019	0.21 ± 0.049
AACCUG	0.131 ± 0.046	1.81 ± 0.02	1.38 ± 0.028	0.4422 ± 0.0015
AAAUUU	0.596 ± 0.082	1.95 ± 0.043	1.9 ± 0.034	0.577 ± 0.029
AAAUUC	0.489 ± 0.043	1.95 ± 0.041	1.87 ± 0.033	0.603 ± 0.015
AAAUUA	-0.311 ± 0.019	1.899 ± 0.016	1.83 ± 0.055	-0.0839 ± 0.038
AAAUUG	0.0713 ± 0.0046	1.88 ± 0.035	1.54 ± 0.049	0.431 ± 0.0093
UACAAG	0.335 ± 0.0078	1.928 ± 0.011	1.58 ± 0.018	0.444 ± 0.047
UACAAU	0.702 ± 0.073	1.9 ± 0.039	1.819 ± 0.0071	0.7079 ± 0.0057
CAACUU	0.257 ± 0.007	1.95 ± 0.043	1.873 ± 0.0032	0.377 ± 0.026
CAACUA	0.494 ± 0.084	1.93 ± 0.029	1.709 ± 0.011	0.695 ± 0.016
CAAGGC	-0.0753 ± 0.017	1.936 ± 0.017	1.84 ± 0.024	-0.0781 ± 0.056
CAAGGU	0.232 ± 0.021	1.883 ± 0.015	1.78 ± 0.029	0.388 ± 0.027
GACACG	0.359 ± 0.011	1.9 ± 0.045	1.51 ± 0.018	0.695 ± 0.12
GACACC	0.458 ± 0.072	1.92 ± 0.022	1.8641 ± 0.00014	0.365 ± 0.049
CACAUA	0.738 ± 0.084	1.91 ± 0.07	1.73 ± 0.047	0.656 ± 0.076
AAACGU	0.362 ± 0.036	1.877 ± 0.0019	1.63 ± 0.043	0.519 ± 0.03
AAAUAA	0.684 ± 0.016	1.89 ± 0.024	1.74 ± 0.025	0.775 ± 0.11
AAAUAG	0.258 ± 0.041	1.842 ± 0.0027	1.44 ± 0.018	0.487 ± 0.016

Variant	FACS-Seq fitted mean (log10) [1]	normalized RNA/DNA level with ligand (log10) [2]	normalized RNA/DNA level without ligand (log10) [3]	FACS-Seq fitted mean (log10) [4]
AAAUAU	-0.168 ± 0.02	1.924 ± 0.012	1.763 ± 0.0044	-0.451 ± 0.1
CAAGCA	0.544 ± 0.054	1.964 ± 0.012	1.7 ± 0.063	0.609 ± 0.094
CAAGCC	0.17 ± 0.076	1.96 ± 0.011	1.87 ± 0.028	0.404 ± 0.0094
UAAUCG	-0.0742 ± 0.028	1.93 ± 0.021	1.633 ± 0.014	0.247 ± 0.059
UAAUCU	0.5653 ± 0.0022	1.96 ± 0.043	1.87 ± 0.061	0.561 ± 0.067
GACCUG	0.408 ± 0.074	1.887 ± 0.0022	1.52 ± 0.018	0.608 ± 0.095
CAAGUC	0.736 ± 0.067	1.95 ± 0.069	1.921 ± 0.018	0.635 ± 0.04
UACACU	-0.295 ± 0.069	1.911 ± 0.006	1.9 ± 0.0044	-0.34 ± 0.0052
GAAGAG	-0.121 ± 0.02	1.79 ± 0.022	1.27 ± 0.032	0.521 ± 0.037
GAAGAC	0.249 ± 0.014	1.921 ± 0.0023	1.63 ± 0.026	0.505 ± 0.069
GAAGAA	0.4206 ± 0.0035	1.9256 ± 0.00044	1.677 ± 0.013	0.5245 ± 0.001
CAAUGG	-0.334 ± 0.031	1.82 ± 0.071	1.42 ± 0.042	0.178 ± 0.12
CAAUGU	0.483 ± 0.12	1.91 ± 0.034	1.86 ± 0.062	0.48 ± 0.078
UAAGGA	0.215 ± 0.031	1.88 ± 0.041	1.608 ± 0.0063	0.472 ± 0.057
UAAGGG	0.3343 ± 0.00083	1.878 ± 0.013	1.4441 ± 0.0011	0.519 ± 0.015
UAAGGU	0.356 ± 0.021	1.94 ± 0.042	1.53 ± 0.027	0.602 ± 0.06
AACAUG	0.137 ± 0.021	1.861 ± 0.0051	1.44 ± 0.042	0.447 ± 0.013
AACAUA	0.665 ± 0.084	1.89 ± 0.021	1.801 ± 0.018	0.63 ± 0.035
AAAUCG	0.0899 ± 0.022	1.86 ± 0.04	1.36 ± 0.014	0.509 ± 0.04
AAAUCA	0.598 ± 0.077	1.927 ± 0.0036	1.8121 ± 0.0018	0.629 ± 0.082
CACACU	0.146 ± 0.034	1.953 ± 0.0082	1.87 ± 0.036	0.266 ± 0.0029
AACCGC	-0.101 ± 0.015	1.916 ± 0.014	1.79 ± 0.036	0.124 ± 0.016
AACCGG	0.0275 ± 0.00055	1.877 ± 0.011	1.43 ± 0.031	0.526 ± 0.015
AACCGA	0.422 ± 0.041	1.9477 ± 0.0019	1.72 ± 0.019	0.533 ± 0.044

Variant	FACS-Seq fitted mean (log10) [1]	normalized RNA/DNA level with ligand (log10) [2]	normalized RNA/DNA level without ligand (log10) [3]	FACS-Seq fitted mean (log10) [4]
AACCGU	0.798 ± 0.12	1.889 ± 0.0024	1.75 ± 0.057	0.637 ± 0.047
UACAUG	-0.317 ± 0.071	1.93 ± 0.029	1.69 ± 0.018	0.0659 ± 0.069
GAAUGG	-0.206 ± 0.053	1.76 ± 0.037	1.216 ± 0.012	0.417 ± 0.012
GAAUGA	0.481 ± 0.081	1.922 ± 0.0024	1.66 ± 0.057	0.688 ± 0.028
GAAUGC	0.275 ± 0.016	1.863 ± 0.014	1.53 ± 0.03	0.577 ± 0.011
GAAUGU	0.27 ± 0.024	1.91 ± 0.022	1.718 ± 0.0052	0.381 ± 0.07
AAAUGG	0.175 ± 0.024	1.78 ± 0.025	1.33 ± 0.019	0.502 ± 0.013
AAAUGA	0.89 ± 0.066	1.924 ± 0.0069	1.688 ± 0.0025	0.709 ± 0.13
AAAUGC	-0.0368 ± 0.059	1.92 ± 0.029	1.76 ± 0.026	0.173 ± 0.096
UAACGU	0.145 ± 0.021	1.914 ± 0.01	1.61 ± 0.038	0.365 ± 0.051
UAACGG	0.07847 ± 0.00013	1.82 ± 0.083	1.376 ± 0.0076	0.473 ± 0.081
GACAAA	0.0314 ± 0.035	1.91 ± 0.058	1.774 ± 0.011	0.0426 ± 0.012
AAAGAU	0.523 ± 0.055	1.895 ± 0.016	1.68 ± 0.017	0.708 ± 0.025
AAAGAG	-0.112 ± 0.064	1.8 ± 0.025	1.32 ± 0.042	0.451 ± 0.045
AAAGAA	0.0245 ± 0.07	1.9 ± 0.028	1.715 ± 0.0039	0.207 ± 0.017
GAACUA	0.557 ± 0.024	1.873 ± 0.012	1.815 ± 0.0032	0.182 ± 0.072
GAACUU	0.731 ± 0.013	1.91 ± 0.11	1.8654 ± 0.0014	0.616 ± 0.025
CAAGAG	0.342 ± 0.095	1.86 ± 0.036	1.57 ± 0.03	0.473 ± 0.018
CAAGAA	0.513 ± 0.021	1.89 ± 0.03	1.7 ± 0.044	0.45 ± 0.091
UACCUA	0.48 ± 0.072	1.93 ± 0.0042	1.921 ± 0.019	0.369 ± 0.023
UACCUG	-0.0249 ± 0.053	1.93 ± 0.024	1.635 ± 0.012	0.0984 ± 0.069
AACAGG	0.1 ± 0.034	1.76 ± 0.042	1.291 ± 0.0056	0.57 ± 0.031
AACAGA	0.273 ± 0.058	1.907 ± 0.0091	1.642 ± 0.0026	0.322 ± 0.091
